Laboratory results as given in patent publication US20260085097A1 (TEXAS A AND M UNIVERSITY SYSTEM, published 2026).
Read-outs that look alike come from different tables or passages of the source.

Assays:
[1] = biological target: Shiga toxin 2a (Stx2a) holotoxin (Escherichia coli (Shiga …, UniProt P09385 23-319; P09386 20-89); test: cell-based or functional assay
Target sequence in this assay (P09385 23-319, chain 1 of 2): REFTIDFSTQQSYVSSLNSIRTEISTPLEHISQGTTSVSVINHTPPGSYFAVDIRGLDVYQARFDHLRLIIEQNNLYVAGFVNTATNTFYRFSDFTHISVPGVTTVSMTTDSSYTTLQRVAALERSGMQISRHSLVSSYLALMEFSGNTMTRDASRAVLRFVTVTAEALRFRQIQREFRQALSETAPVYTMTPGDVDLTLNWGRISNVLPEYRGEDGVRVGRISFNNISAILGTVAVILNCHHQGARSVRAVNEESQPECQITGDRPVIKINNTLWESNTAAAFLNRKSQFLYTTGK
Target sequence in this assay (P09386 20-89, tags left off, chain 2 of 2): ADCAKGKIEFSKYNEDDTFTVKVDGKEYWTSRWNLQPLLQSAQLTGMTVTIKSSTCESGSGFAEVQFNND

[2] = biological target: T1, Shiga toxin 2a (Stx2a) holotoxin (Escherichia coli (Shiga …, UniProt P09385 23-319; P09386 20-89)
T1 sequence (P09385 23-319 limits assumed, one chain of several): as the sequence (P09385 23-319, chain 1 of 2) above

[3] = biological target: T1, Shiga toxin 2a (Stx2a) holotoxin; test: cell-based or functional assay; remark: listed apart in the source
[4] = biological target: T1, Shiga toxin 2a (Stx2a) holotoxin; test: BLI (BLItz), biotinylated Stx2a holotoxin on streptavidin sensor, apparent KD
[5] = biological target: T1, Shiga toxin 2a (Stx2a) holotoxin; test: BLI (BLItz), biotinylated Stx2a holotoxin on streptavidin sensor
[6] = biological target: T1, Shiga toxin 2a (Stx2a) holotoxin; remark: listed apart in the source
[7] = biological target: T2, Stx2a-A1 fragment with a C-terminus 6xHis tag (Escherichia coli (Shiga …, UniProt P09385 23-272)); test: ELISA at pH 6.0, plate coated with 4 ug/mL Stx2a-A1
T2 sequence (P09385 23-272, tags left off): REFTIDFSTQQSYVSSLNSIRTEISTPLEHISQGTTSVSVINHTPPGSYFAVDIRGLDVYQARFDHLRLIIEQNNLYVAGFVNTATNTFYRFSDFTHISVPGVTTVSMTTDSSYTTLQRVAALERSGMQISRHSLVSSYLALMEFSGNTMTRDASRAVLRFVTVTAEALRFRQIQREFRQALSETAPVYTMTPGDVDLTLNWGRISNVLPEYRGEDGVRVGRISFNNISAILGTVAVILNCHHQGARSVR

[8] = biological target: T2, Stx2a-A1 fragment with a C-terminus …; test: ELISA at pH 7.4, plate coated with 4 ug/mL Stx2a-A1
[9] = biological target: T1, Shiga toxin 2a (Stx2a) holotoxin; test: screen of E. coli lysates for Stx2a binding after off-rate selection
[10] = biological target: T1, Shiga toxin 2a (Stx2a) holotoxin; remark: listed apart in the source
[11] = biological target: T1, Shiga toxin 2a (Stx2a) holotoxin; remark: listed apart in the source
[12] = biological target: T1, Shiga toxin 2a (Stx2a) holotoxin; test: ELISA, plate coated with full-length Stx2a

B1: DARPin #16 (designed binder)
chain: DLGKKLLEAARAGQDDEVRILMANGADVNAADPAGWTPLHLAACYGHLEIVGVLLKNGADVNALDWGGWTPLHLAAVIGHLEIVGVLLKHGADVNATDLSGWTPLHLAAFRGHLEIVEVLLKHGADVNAQDKFGKTAFDISIDNGNEDLAEILQSSS
[1]
  EC50 of Stx2a neutralization, Vero E6 toxin challenge assay (cell viability): > 1000 nM

B2: DARPin #3 (designed binder)
chain: MGSSHHHHHHSSGLVPRGSHMEQKLISEEDLGSDLGKKLLEAARAGQDDEVRILMANGADVNACDSNGRTPLHLAAVRGHLEIVEVLLKNGADVNAWDVIGKTPLHLAADGGHLEIVEVLLKNGADVNAWDLIGRTPLHLAALDGHLEIVEVLLEHGADVNAYDRPGHTPLHLAARRGHLEIVEVLLKYGADVNAQDKFGKTAFDISIDNGNEDLAEILQSSS
[2]
  koff: 0.0438 s⁻¹
[3]
  EC50 of Stx2a neutralization, Vero E6 toxin challenge assay (cell viability): > 1000 nM
[4]
  Kd: 8.8 nM
[5]
  Kd: 8.83 nM

B3: DARPin HT (designed binder)
chain: MGSSHHHHHHSSGLVPRGSHMEQKLISEEDLGSDLGKKLLEAARAGQDDEVRILMANGADVNAGDPFGFTPLHLAAMFGHLEIVEVLLKNGADVNAHDEYGFTPLHLAAVVGHLEIVEVLLKNGADVNACDNQGGTPLHLAAHTGHLEIVEVLLKHGADVNAQDKFGKTAFDISIDNGNEDLAEILQSSS
[6]
  EC50 (read off the curve): ~1 nM
[3]
  EC50 of Stx2a neutralization, Vero E6 toxin challenge assay: 1900 nM
[7]
  EC50: 1.2 nM
[8]
  EC50: 1.2 nM
[4]
  Kd: 409 nM

B4: DARPin Off-rate #28 (designed binder)
chain: MGSSHHHHHHSSGLVPRGSHMEQKLISEEDLGSDLGKKLLEAARAGQDDEVRILMANGADVNAGDPFGFTPLHLAAMYGHLEIVEVLLKNGADVNAHEEYGFTPLHLAAVVGHLEIVEVLLKNGADVNACDNQGGTPLHLAARIGHLEIVEVLLKHGADVNAQDKFGKTAFDISIDNGNEDLAEILQSSS
[9]
  binding result: binds

B5: DARPin Off-rate #26 (designed binder)
chain: MGSSHHHHHHSSGLVPRGSHMEQKLISEEDLGSDLGKKLLEAARAGQDDEVRILMANGADVNAGDPFGFTPLHLAAMFGHLEIVEVLLKNGADVNAHEEYGFTPLHLAAVVGHLEIVEVLLKNGADVNACDNQGGTPLHLASHTGHLEIVEVLLKHGADVNAQDKFGKTAFDISIDTGNEDLAEILQSSS
[9]
  binding result: binds

B6: DARPin 10B (designed binder)
chain: MGSSHHHHHHSSGLVPRGSHMEQKLISEEDLGSDLGKKLLEAARAGQDDEVRILMANGADVNAGDPFGFTPLHLAAMFGHLEIVEVLLKNGADVNAHDEYGFTPLHLAAVVGHLEIVEVLLKNGADVNACDNQGGTPLHLAAVDGHLEIVEVLLKHGADVNAQDKFGKTAFDISIDNGNEDLAEILQSSS
[10]
  EC50 (read off the curve): ~4 nM
[11]
  Kd: 3540 nM
[3]
  EC50 of Stx2a neutralization, Vero E6 toxin challenge assay: 2700 nM
  EC50 of Stx2a neutralization, Vero E6 toxin challenge assay (cell viability): > 1000 nM
[7]
  EC50: 3.8 nM
[8]
  EC50: 3.7 nM
[4]
  Kd: 3450 nM
[5]
  Kd: 3540 nM

B7: DARPin Off-rate #27 (designed binder)
chain: MGSSHHHHHHSSGLVPRGSHMEQKLISEEDLGSDLGKKLLEAARAGQDDEVRFLMANGADVNAGDPFGFTPLHLAAMFGHLEIVEVLLKNGADENAHEEYGFTPLHLAAVVGHLEIVEVLLKNGADVNACDNQGGTPLHLAAHTGHLEIVEVLLKHGADVNAQDKFGKTAFDISIDNGNEDLAEILQSSS
[9]
  binding result: binds

B8: DARPin RI (designed binder)
chain: MGSSHHHHHHSSGLVPRGSHMEQKLISEEDLGSDLGKKLLEAARAGQDDEVRILMANGADVNAGDPFGFTPLHLAAMFGHLEIVEVLLKNGADVNAHDEYGFTPLHLAAVVGHLEIVEVLLKNGADVNACDNQGGTPLHLAARIGHLEIVEVLLKHGADVNAQDKFGKTAFDISIDNGNEDLAEILQSSS
[6]
  EC50 (read off the curve): ~1 nM
[3]
  fold improved toxin neutralization activity in the Vero E6 toxin challenge assay: ~4 fold
[12]
  fold improved toxin-binding ability in ELISA (against parent 10B): ~8 fold
